These binders were tested against T1, human CD40 (BMS, CY24FEB06-01) (human, UniProt P25942 21-193) (assay: ELISA RBA, competition with IZ-CD40L for soluble human CD40;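 further: Neutravidin-coated 384-well plates, dAb–human CD40 complex incubated 2 h at room temperature, read-out as absorbance at 450 nm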).
T1 construct: Soluble human CD40 reagent of the ELISA RBA
T1 sequence (P25942 21-193 limits assumed): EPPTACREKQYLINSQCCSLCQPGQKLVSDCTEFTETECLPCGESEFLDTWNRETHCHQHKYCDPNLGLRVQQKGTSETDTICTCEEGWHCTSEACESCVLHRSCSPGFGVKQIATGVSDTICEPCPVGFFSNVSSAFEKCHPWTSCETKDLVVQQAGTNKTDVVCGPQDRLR
Procedure: (§1) Clear walled High Bind, 384-well plates (Corning, UK) were coated with 25 μl of 1 μg/ml Neutravidin in 0.2 M carbonate-bicarbonate buffer, pH 9.4 overnight at 4° C. The following day, assay plates were washed with 0.1% (v/v) Tween PBS buffer, blocked with 1% (w/v) BSA in PBS for 1 hour at room temperature and washed again. […] Following washing of the assay plate, the dAb:human CD40 complex was incubated in the assay plate at room temperature for 2 hours with gentle agitation. […] Absorbance signal was measured using a SpectraMax® M5e plate reader (Molecular Devices) at 450 nm following neutralization with 1M HCl solution.

| Binder | EC50 [nM] |
| --- | --- |
| BMS3h-193-2504 (other, domain antibody (dAb): single human V kappa domain) VL: DIQMTQSPSSLSASVGDRVTITCRASSQIGRRLNWYQQKPGKAPRLLIYLATRLQSGVPSRFSGSGSGTDFTLTISSLQPEDFATYYCHQYESPPLTFGQGTKVEIKR | 140 |
| BMS3h-193-2505 (other, domain antibody (dAb): single human V kappa domain) VL: DIQMTQSPSSLSASVGDRVTITCRASERIGRRLNWYQQKPGKAPRLLIYLATRLQSGVPSRFSGSGSGTDFTLTISSLQPEDFATYYCHQYESPPLTFGQGTKVEIKR | 500 |
| BMS3h-193-2507 (other, domain antibody (dAb): single human V kappa domain) VL: DIQMTQSPSSLSASVGDRVTITCRASQPIARRLNWYQQKPGKAPRLLIYLATRLQSGVPSRFSGSGSGTDFTLTISSLQPEDFATYYCHQYESPPLTFGQGTKVEIKR | 160 |
| BMS3h-193-2510 (other, domain antibody (dAb): single human V kappa domain) VL: DIQMTQSPSSLSASVGDRVTITCRASQSIGRRLNWYQQKPGKAPRLLIYLATRLQSGVPSRFSGSGSGTDFTLTISSLQPEDFATYYCHQYESPPLTFGQGTKVEIKR | 170 |
| BMS3h-193-2511 (other, domain antibody (dAb): single human V kappa domain) VL: DIQMTQSPSSLSASVGDRVTITCRASQNIGTRLNWYQQKPGKAPRLLIYLATRLQSGVPSRFSGSGSGTDFTLTISSLQPEDFATYYCHQYESPPLTFGQGTKVEIKR | 270 |
| BMS3h-193-2512 (other, domain antibody (dAb): single human V kappa domain) VL: DIQMTQSPSSLSASVGDRVTITCRASEVIGRRLNWYQQKPGKAPRLLIYLATRLQSGVPSRFSGSGSGTDFTLTISSLQPEDFATYYCHQYESPPLTFGQGTKVEIKR | 600 |
| BMS3h-193-2513 (other, domain antibody (dAb): single human V kappa domain) VL: DIQMTQSPSSLSASVGDRVTITCRASEAIGRRLNWYQQKPGKAPRLLIYLATRLQSGVPSRFSGSGSGTDFTLTISSLQPEDFATYYCHQYESPPLTFGQGTKVEIKR | 130 |
| BMS3h-193-2514 (other, domain antibody (dAb): single human V kappa domain) VL: DIQMTQSPSSLSASVGDRVTITCRASTSIARRLNWYQQKPGKAPRLLIYLATRLQSGVPSRFSGSGSGTDFTLTISSLQPEDFATYYCHQYESPPLTFGQGTKVEIKR | 525 |
| BMS3h-193-2515 (other, domain antibody (dAb): single human V kappa domain) VL: DIQMTQSPSSLSASVGDRVTITCRASLNIGRRLNWYQQKPGKAPRLLIYLATRLQSGVPSRFSGSGSGTDFTLTISSLQPEDFATYYCHQYESPPLTFGQGTKVEIKR | 100 |
| BMS3h-193-2516 (other, domain antibody (dAb): single human V kappa domain) VL: DIQMTQSPSSLSASVGDRVTITCRASQTIERRLNWYQQKPGKAPRLLIYLSSKLQSGVPSRFSGSGSGTDFTLTISSLQPEDFATYYCHQYESPPLTFGQGTKVEIKR | 100 |

These binders were tested against T2, human CD40 (BMS, CY24FEB06-01) (human, UniProt P25942 21-193) (assay: ELISA RBA, competition with IZ-CD40L;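 further: Neutravidin-coated 384-well plate, dAb–human CD40 complex bound for 2 h at room temperature, absorbance read at 450 nm after HCl stop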).
T2 construct: Soluble reagent of the bead and ELISA RBA; It is detected with an anti-human IgG (Fc) mAb, so it may be a CD40-Ig fusion
T2 sequence (P25942 21-193 limits assumed): as the sequence (P25942 21-193 limits assumed) above
Procedure: as §1

| Binder | EC50 [nM] |
| --- | --- |
| BMS3h-217-1 (other, dAb, single VK) VL: NIQMTQSPSSLSASVGDRVTITCRASHFIGTLLTWYQHKPGKAPKLLITYGSLLQSGVPSRFSGSGSGTDFTLTISSLQPEDFATYYCGQGVLWPATFGQGTKVEIKR | 23 |
| BMS3h-217-2 (other, dAb, single VK) VL: DIQMTQSPSSLSASVGDRVTITCRASHFIGTLLSWYQQKPRKAPKLLITYGSLLQSGVPSRFSGSGSGTDFTLTISSLHPEDFATYYCGQGVLWPPTFGQGTKVEIKR | 78 |
| BMS3h-217-3 (other, dAb, single VK) VL: DIQMTQSPSSLTASVGDRVTITCRASHFIGTLLSWYQQKPGKAPKLLVTYGSLLQSGVPSRFSGSGSGTDFTLTISNLQPEDFATYYCGQGVLWPPTFGQGTKVENIR | 32 |
| BMS3h-217-7 (other, dAb, single VK) VL: DIQMTQSPSSLSASVGDRVTITCRASHFIGSLLSWYQHKPGKAPKLLITYGSLLQSGVPSRFSGSGSGTDFTLTISSLQPEDFATYYCGQGVLWPATFGQGTKVEIKR | 39 |

Reference: US20200199244A1 (published 2020)
